Target: T1, murine NKG2D on NK cells / splenocytes (mouse, UniProt O54709 1-232)
T1 construct: whole, on cells; also called NKG2D receptor
T1 sequence: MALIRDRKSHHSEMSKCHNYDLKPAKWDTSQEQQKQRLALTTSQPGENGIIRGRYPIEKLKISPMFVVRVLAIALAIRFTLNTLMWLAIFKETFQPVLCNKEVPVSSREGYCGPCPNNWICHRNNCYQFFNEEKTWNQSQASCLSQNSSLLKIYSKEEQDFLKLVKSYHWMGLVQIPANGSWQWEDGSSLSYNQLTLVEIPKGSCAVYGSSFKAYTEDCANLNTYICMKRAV
Test: flow cytometry, fluorescently labeled construct on bulk splenocytes at 37° C.

B1: OMCP-mutIL-2 (R38A, F42K, C125S IL2-OMCP construct) (other)
chain: HKLAFNFNLEINGSDTHSTVDVYLDDSQIITFDGKDIRPTIPFMIGDEIFLPFYKNVFSEFFSLFRRVPTSTPYEDLTYFYECDYTDNKSTFDQFYLYNGEEYTVKTQEATNKNMWLTTSEFRLKKWFDGEDCIMHLRSLVRKMEDSKRNTGGTGSSGSSDYKDDDDKHHHHHHHHGSSGSSAPTSSSTKKTQLQLEHLLLDLQMILNGINNYKNPKLTAMLTKKFYMPKKATELKHLQCLEEELKPLEEVLNLAQSKNFHLRPRDLISNINVIVLELKGSETTFMCEYADETATIVEFLNRWITFSQSIISTLT
notes: also called OMCP-mutant IL-2; OMCP-IL2 construct
B1: binds.
